For 4 substances, EC50 for pSTAT5 signaling, Treg cells, EC50 for pSTAT5 signaling, CD8+ T cells and EC50 for pSTAT5 signaling, NK cells results are on record in patent US20220016249A1.

For assay [1], the target named is IL-2 receptor signaling complex on primary human Treg cells (IL-2Rα expressing; IL-2Rαβγ) (human) (UniProt P01589). Kind of assay: cell-based or functional assay. The arrangement: unit not given beside the values.
Assay [2] concerns the target IL-2 receptor signaling complex on primary human NK cells and CD8+ T cells (IL-2Rβγ) (human) (UniProt P14784). Kind of assay: cell-based or functional assay. On the set-up: unit not given beside the values.

Chain of IL-2 receptor signaling complex on primary human NK cells and CD8+ T cells (IL-2Rβγ) (human) (P14784 27-551, chain 1 of 2): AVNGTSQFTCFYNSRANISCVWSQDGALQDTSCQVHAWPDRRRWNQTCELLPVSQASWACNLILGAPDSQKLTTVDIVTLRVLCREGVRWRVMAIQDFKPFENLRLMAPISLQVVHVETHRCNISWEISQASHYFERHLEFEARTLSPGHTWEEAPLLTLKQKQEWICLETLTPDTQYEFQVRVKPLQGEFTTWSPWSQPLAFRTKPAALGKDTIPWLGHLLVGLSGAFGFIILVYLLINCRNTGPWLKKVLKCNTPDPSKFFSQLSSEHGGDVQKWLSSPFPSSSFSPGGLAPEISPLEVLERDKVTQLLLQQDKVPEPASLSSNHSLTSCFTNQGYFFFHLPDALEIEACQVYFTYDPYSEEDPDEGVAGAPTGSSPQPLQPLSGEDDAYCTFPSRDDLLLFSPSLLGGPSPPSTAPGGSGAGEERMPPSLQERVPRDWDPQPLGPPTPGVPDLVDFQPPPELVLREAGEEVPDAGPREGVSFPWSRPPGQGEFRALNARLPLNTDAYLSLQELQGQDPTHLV
Chain of IL-2 receptor signaling complex on primary human NK cells and CD8+ T cells (IL-2Rβγ) (human) (P31785 23-369, chain 2 of 2, further chain): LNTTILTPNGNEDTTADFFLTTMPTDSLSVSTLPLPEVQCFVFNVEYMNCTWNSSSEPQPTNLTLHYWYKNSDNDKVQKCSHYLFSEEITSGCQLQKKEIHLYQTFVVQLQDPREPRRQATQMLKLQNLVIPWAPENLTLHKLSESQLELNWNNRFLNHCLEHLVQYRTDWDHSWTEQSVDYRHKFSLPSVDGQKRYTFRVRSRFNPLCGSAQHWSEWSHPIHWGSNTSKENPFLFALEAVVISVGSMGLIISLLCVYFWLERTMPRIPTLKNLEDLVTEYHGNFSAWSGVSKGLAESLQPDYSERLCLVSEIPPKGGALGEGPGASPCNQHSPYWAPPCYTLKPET
Chain of IL-2 receptor signaling complex on primary human Treg cells (IL-2Rα expressing; IL-2Rαβγ) (human) (P01589 22-272, chain 1 of 3): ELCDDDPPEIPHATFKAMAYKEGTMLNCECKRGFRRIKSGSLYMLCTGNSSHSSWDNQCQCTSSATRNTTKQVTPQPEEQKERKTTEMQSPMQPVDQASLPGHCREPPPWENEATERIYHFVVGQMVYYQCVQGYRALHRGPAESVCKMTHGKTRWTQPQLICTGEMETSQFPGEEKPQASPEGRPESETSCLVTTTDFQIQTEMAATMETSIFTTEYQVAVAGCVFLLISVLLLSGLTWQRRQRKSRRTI
Chain of IL-2 receptor signaling complex on primary human Treg cells (IL-2Rα expressing; IL-2Rαβγ) (human) (P14784 27-551, chain 2 of 3, further chain): as the sequence (P14784 27-551, chain 1 of 2) above
Chain of IL-2 receptor signaling complex on primary human Treg cells (IL-2Rα expressing; IL-2Rαβγ) (human) (P31785 23-369, chain 3 of 3, further chain): as the sequence (P31785 23-369, chain 2 of 2, further chain) above
Chain of S127_30kD (P60568 other isoform, or with tags, fused parts or gaps limits assumed): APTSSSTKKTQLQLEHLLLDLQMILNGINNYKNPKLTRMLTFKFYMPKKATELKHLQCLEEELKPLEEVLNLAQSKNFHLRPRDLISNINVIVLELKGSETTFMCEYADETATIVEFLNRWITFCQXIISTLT

In the case of “N88R (from UniProt P60568 21-153) (ligand)”, the EC50 for pSTAT5 signaling, Treg cells in assay [1] was found to be 11100. Besides, in assay [2], the EC50 for pSTAT5 signaling, CD8+ T cells was found to be 1.5e+07 and the EC50 for pSTAT5 signaling, NK cells was 2.31e+06.

Turning to “N88R/D109_30kD (from UniProt P60568 21-153) (ligand)”, the EC50 for pSTAT5 signaling, Treg cells in assay [1] was 176000. In assay [2], this substance yielded an EC50 for pSTAT5 signaling, CD8+ T cells of 1.25e+07 and an EC50 for pSTAT5 signaling, NK cells of 2.78e+06.

In assay [1], “S127_30kD (from UniProt P60568 21-153) (ligand)” yielded an EC50 for pSTAT5 signaling, Treg cells of 150.

“V91K (from UniProt P60568 21-153) (ligand)” displayed an EC50 for pSTAT5 signaling, Treg cells in assay [1] of 142. Also, in assay [2], the EC50 for pSTAT5 signaling, CD8+ T cells came out at 102000 and the EC50 for pSTAT5 signaling, NK cells came to 20500.
